In patent US20180222985A1, “ANTIBODIES AGAINST HUMAN CSF-1R FOR USE IN INDUCING LYMPHOCYTOSIS IN LYMPHOMAS OR LEUKEMIAS” (Hoffmann-La Roche Inc., priority 2015, published 2018):

Tests used:
[1] = molecular target: human mutant CSF-1R L301S Y969F (human) (UniProt P07333); experiment: cell-based or functional assay
[2] = molecular target: human wildtype CSF-1R (wt CSF-1R) (human, UniProt P07333 20-972); experiment: cell-based or functional assay
[3] = system: MEC1 cells; experiment: CLL xeno-transplantation system: MEC1 cells i.v. in Rag2−/−γc−/− mice; assay type: in vivo
Experimental: FIG. 4 Anti-leukemic effect of anti-CSF1R moAb in the CLL xeno-transplantation system. • (A-B-C-D-E) i.v. MEC1 challenged (day 0) Rag2^−/−γc^−/− mice were treated i.v. (day +11, +25) with 30 mg/Kg of anti-CSF1R moAb (n=3, white circles) or left untreated (n=4, black circles) and killed at day 27 (A). The mean value of the absolute number of CD11b+ F4/80+ cells gated on CD45+ in SP (B) and BM (C) is shown in graphs. The mean value of the absolute number of human CD19+ cells in the BM is shown in graph (D). The mean value of the absolute number of human CD19+ cells and of Ann-PI+ cells gated on hCD19+ cells in SP is shown in graphs (E). Data are from one representative experiment of three. Statistical analysis: *p<0.05, **p<0.01, Student's t test. (F-G-H-I) i.v. MEC1 challenged (day 0) Rag2^−/−γc^−/− mice were treated i.v. (day +11, +25) with 30 mg/Kg of anti-CSF1R moAb) (n=7, white circles) or left untreated (n=7, black circles) and killed at days 27 and 29, 48 h and 96 h after the last moAb injection (F). The mean value of the absolute number of human CD19+ cells and of Ann-PI+ cells gated on hCD19+ cells in SP at days 27, 29 is shown in graphs (G). […]
FIG. 5 Anti-leukemic effect and survival impact of anti-CSF1R moAb in the CLL xeno-transplantation system. • (A-B-C) i.v. MEC1 challenged (day 0) Rag2^−/−γc^−/− mice were treated i.v. (day +11, +25) with 30 mg/Kg of anti-CSF1R moAb (n=3, white circles) or left untreated (n=4, black circles) and killed at day 27 (A). […] Statistically significant differences were calculated using the Student t test. **p<0.01, ***p<0.001. (D-E) i.v. MEC1 challenged (day 0) Rag2^−/−γc^−/− mice were left untreated (n=10, black circles) or treated with: 30 mg/Kg i.v. of anti-CSF1R moAb (n=11, white circles; day +11, +25); or 30 mg/Kg i.p. of anti-CD20 moAb GA101 (n=10, blue circles; day +11, +25); or 30 mg/Kg i.p. of anti-CD20 moAb GA101 (day +11, +25)+30 mg/Kg i.v. of anti-CSF1R moAb (day +18, +32) (n=10, violet circles) and monitored for survival (D). […]

[4] = system: PBMCs from CLL patients; experiment: In vitro cultures and cell-depletion assays from CLL samples (PBMCs); assay type: cell-based, human; conditions: etanercept 10 μg/ml, 24 h; 3 out of 4 samples
Experimental: Statistically significant differences were calculated using the Student t test. *p<0.05 • (C) hCD19+ CDS+ depletion after 24 h treatment (n=3) with 100 μM, 500 μM, 1000 μM of clodrolip, with (black bar) or without (white bar) etanercept (10 n/ml) was calculated by the following formula: 100−% remaining cells, where % remaining cells=(Absolute number in treated samples/Absolute number in untreated samples)×100. (*p<0.05), Student's t test. • (D) hCD19+ CDS+ depletion after 24 h treatment (n=3) with clodrolip 1000 μM, with (black bar) or without (white bar) blocking anti-TRAIL-R2 moAb (1 μg/ml) was calculated by the following formula: 100−% remaining cells, where % remaining cells=(Absolute number in treated samples/Absolute number in untreated samples)×100.
Fresh PBMCs from untreated CLL patients were seeded, as triplicates, at 3×10^6 cells/ml in culture medium and treated with clodrolip or PBS liposomes (100, 500, 1000 μM) for 30 min and 24 h, in presence or absence of etanercept (10 μg/ml), a TNF-α antagonist from Pfizer or anti-TRAIL-R2 (human, 1 μg/ml) moAb (HS201) from Adipogen AG. […] The specific percentage of remaining leukemic CD19+CD5+ or CD14+ cells in treated samples was calculated as (absolute number in treated samples/absolute number in control samples)×100. […]

**Q.** For “goat polyclonal anti-CSF-1R antibody ab10676 (abcam)”, which Mutant CSF-1R IC30 (30 percent inhibition of cell viability, CellTiterGlo, 3D spheroid culture) [1] is on record?
**A.** The Mutant CSF-1R IC30 (30 percent inhibition of cell viability, CellTiterGlo, 3D spheroid culture) was over 20 µg/mL.

**Q.** What about the Mutant CSF-1R: inhibition of cell viability at 20 µg/ml [1] of the same substance?
**A.** The Mutant CSF-1R: inhibition of cell viability at 20 µg/ml was 0%.

**Q.** What about the wtCSF-1R IC30 (30 percent inhibition of cell viability, CellTiterGlo, 3D spheroid culture) [2] of the same substance?
**A.** The wtCSF-1R IC30 (30 percent inhibition of cell viability, CellTiterGlo, 3D spheroid culture) was 14.2 µg/mL.

**Q.** Which results are given for “Anti CSF-1R SC 2-4A5 (Santa Cruz Biotechnology, US) (antibody)”?
**A.** Mutant CSF-1R IC30 (30 percent inhibition of cell viability, CellTiterGlo, 3D spheroid culture) [1]: 2.56 µg/mL; wtCSF-1R IC30 (30 percent inhibition of cell viability, CellTiterGlo, 3D spheroid culture) [2]: 16.6 µg/mL

**Q.** With “GA101: glycoengineered humanized B-Ly1 antibody BHH6-B-KV1 GE, type II anti-human CD20” as the substance, how does the “survival of mice, p vs untreated control (Log-Rank test)” value ([3]; 30 mg/Kg each, single agents days +11, +25, combination GA101 days +11, +25 + anti-CSF1R days +18, +32) read?
**A.** The value was 0.006.

**Q.** Which “effect on anti-leukemic effect of CSF1R moAb in the SP” value ([3]; etanercept 10 mg/Kg i.p. from day +10, CSF1R moAb 30 mg/Kg i.v. days +11, +25, day 29) does the source give for etanercept here?
**A.** The value was “abrogated”.

**Q.** What about the “effect on clodrolip-induced leukemic cell depletion in the BM” value ([3]; etanercept 10 mg/Kg i.p. from day +10, clodrolip 60 μl i.v. days +11, +25, day 26) of the same substance?
**A.** Its value is “abated”.

**Q.** What about the “effect on leukemic cell depletion induced by clodrolip (TNF blocked)” value [4] of the same substance?
**A.** Its value is “reduced”.
